Results from patent US20150010920A1.

Molecular target: trypsin from bovine pancreas (Sigma, St. Louis) (bovine) (UniProt P00760)
Test: inhibition kinetics of trypsin (0.005 µM) digesting EGFP-T/C1 at 0-100 nM leupeptin, absorbance at 490 nm, fitted with Enzfitter

Sequence of trypsin from bovine pancreas (Sigma, St. Louis) (bovine) (P00760 24-246): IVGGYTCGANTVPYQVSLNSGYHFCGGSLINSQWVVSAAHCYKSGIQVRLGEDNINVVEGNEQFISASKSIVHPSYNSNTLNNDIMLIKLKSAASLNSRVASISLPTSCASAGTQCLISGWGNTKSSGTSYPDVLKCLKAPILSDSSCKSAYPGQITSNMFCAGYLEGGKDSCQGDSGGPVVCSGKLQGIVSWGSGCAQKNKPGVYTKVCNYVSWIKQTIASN

Ki: 31.1 nM
Substance: leupeptin (Sigma, St. Louis) (peptide)
